The values below come from patent publication US8410115B2, “Methods of treating inflammatory and autoimmune diseases with alpha-4 inhibitory compounds” (Elan Pharmaceuticals, Inc., priority 2006, dated 2013).

Series [1] deals with serotonin 5HT2(A) receptor (Homo sapiens, UniProt P28223). The series can be described thus: 5HT2(A) receptor antagonism in vitro.
Series [2] deals with JCV. Particulars: in vitro; cited from earlier work.
Series [3] relates to JCV. Particulars: one MS patient with PML after natalizumab plus AVONEX; cited from earlier work.
The subject of series [4] is MS patients. Particulars: 2-year Phase 3 MS trials; cited from earlier work.
A further series deals with Crohn's Disease patients. Description: Deaths in Crohn's Disease trials of natalizumab. The conditions noted are these: natalizumab-treated Crohn's Disease patients. The class given is in vivo, human. An excerpt:
The exposure to natalizumab was approximately three-fold greater in these trials than exposure to placebo. The causes of death were acute myocardial infarction, acute renal failure, carbon dioxide asphyxiation, PML, pneumocystis carinii pneumonia, and bronchopulmonary aspergillosis.

In series [5] the test system is rheumatoid arthritis patients. Description: Deaths in rheumatoid arthritis trials of natalizumab. It counts as in vivo, human. Particulars: natalizumab-treated rheumatoid arthritis patients. An excerpt:
Three deaths occurred in the rheumatoid arthritis trials, two in natalizumab-treated patients and one in a patient treated with a placebo. The natalizumab-treated patients died of hemoptysis with respiratory failure and end-stage rheumatoid pulmonary disease. The placebo-treated patient died of circulatory and respiratory insufficiency.

Series [6] relates to MS patients. The series can be described thus: Safety of natalizumab in MS clinical trials (adverse events, deaths). It counts as in vivo, human. The source says:
Eighteen treatment-emergent deaths occurred in the entire natalizumab program. The adverse events encountered in the trials, both common and serious, were similar in natalizumab-treated patients and controls. Adverse events that led to discontinuation of natalizumab occurred in 5.8% of natalizumab-treated MS patients and in 4.8% of placebo-treated MS patients, with urticaria being the most common cause of discontinuation in the natalizumab-treated patients (1.2%).
Of the eighteen deaths that occurred during the clinical trials, five occurred in the placebo-controlled MS trials (including two in patients who had received natalizumab and three who had received placebo). The patients who received natalizumab died of alcohol intoxication and metastatic malignant melanoma. The patients who received placebo died of cardiac arrest, respiratory arrest, and pleural carcinomatosis with seizures. Four deaths occurred in the open-label MS trials, due to respiratory distress, PML, suicide, and seizure due to MS.
At least one serious adverse event was encountered by 251 of the 1,617 natalizumab-treated MS patients (15.5%) and by 214 of the 1,135 placebo-treated patients (18.9%) in the placebo-controlled trial. The most common serious adverse events, classified by organ systems, were nervous system disorders (5.9% natalizumab, 10.2% placebo). […] The second most common serious adverse events were infections and infestations (2.4% natalizumab, 2.2% placebo), with appendicitis and urinary tract infection (<1% in both groups) as the most common.

For series [7], the system named is relapsing MS patients relapsing despite AVONEX. The series can be described thus: Phase 3 add-on therapy study: natalizumab added to AVONEX versus AVONEX plus placebo for 120 weeks. The class given is in vivo, human. The protocol: (§1) As described in more detail in Example 1, two Phase 3 studies were conducted to study the effect of two years of treatment with natalizumab. One of the studies used natalizumab alone (the monotherapy study) and the other used natalizumab in combination with AVONEX® (the add-on therapy study). Both these Phase 3 studies were designed with two sets of primary and secondary endpoints. The primary and secondary endpoints were selected to measure the effects of natalizumab on the inflammatory aspects of the disease after a mean of one year of follow-up in each study (900 patient-years of observation in the monotherapy study; 1,200 patient-years in the add-on therapy study).
(§2) The primary endpoint of these studies was the annualized rate of clinical relapses. Two of the secondary endpoints were two supporting MRI measures of inflammatory disease activity, namely, the mean number of new or newly enlarging T2-hyperintense lesions (measuring lesion accumulation over time) and the mean number of Gd-enhancing lesions (measuring acute disease activity), as ranked in order of importance. The proportion of patients remaining relapse-free provided a third secondary endpoint.
(§3) Another series of endpoints was assessed at the conclusion of each study following two years of natalizumab treatment. The endpoints for this final analysis were selected to determine natalizumab's effects on measures associated with MS disease progression. The primary endpoint at two years was the time until onset of sustained progression of disability, as measured by changes in EDSS scores. Similar to the one-year analysis, the secondary endpoints were additional MRI and clinical measures that would support the primary analysis. The secondary endpoints at two years, ranked in order of importance, were the rate of MS relapses (to confirm one-year relapse observations), the mean volume of T2-hyperintense lesions (a measure of overall MS disease burden), the mean number of T1-hypointense lesions (a measure of axonal loss), and progression of disability as determined by changes in the MSFC (to confirm and expand upon disability effects as measured by the EDSS).
(§4) Given two primary endpoints at two different time points (annualized relapse rate at one year, time to disability progression at two years), the Hochberg procedure for multiple comparisons (Hochberg, Biometrika 75:800-802 (1988)) was used to evaluate the primary endpoint. Each set of secondary endpoints was prioritized in order of importance as listed above. A closed testing procedure was used for each set, such that if statistical significance was not achieved for an endpoint within a set, all endpoints(s) of a lower rank in that set were not considered statistically significant.
The add-on therapy study was designed to evaluate the efficacy of natalizumab against active control for patients breaking through AVONEX® monotherapy. The choice of β-interferon was supported by available data on the proposed mechanisms of action of the available drugs. As discussed above, natalizumab has a well-defined mechanism of action, specifically targeting cellular adhesion and trans-endothelial migration via α4-integrins, as do the class of alpha-4 inhibitor compounds. Although the exact mechanism by which interferon-β exerts efficacy in MS is not known, interferon-β induces a large number of cellular processes involved in cytokine secretion and cellular phenotype changes. […]

Series [8] deals with JCV. Description: Safety evaluation for PML / JCV in natalizumab-exposed clinical trial patients. The source says:
Clinical trial patients exposed to natalizumab were systematically assessed for evidence of incipient PML or any other opportunistic infection.
Criteria were established prospectively for the neuroradiologic evidence and laboratory assays for the diagnosis of PML. A diagnosis of “confirmed PML” was defined by presence of progressive clinical disease, MRI signs typical of PML, detection of JCV DNA in CSF, or pathologic confirmation. Sufficient evidence to exclude PML was defined as lack of progressive neurological disease, MRI lesions not typical of PML or stable over time, or no detectable JCV DNA in the CSF if the MRI was suspicious. A case was deemed “indeterminate” if there was clinical or MRI suspicion of PML and follow-up clinical, MRI, or CSF data could not be obtained.
Investigators were requested to perform the assessment procedure, including medical history, neurological examination, brain MRI, and CSF collection. Blood samples were also collected for PCR analysis of JCV DNA as an exploratory adjunct. MRI scans were assessed by Central Reader Centers with expertise in neurological disorders, including the two Central Reader Centers for the original Phase 3 MS studies. A consensus guideline was developed prospectively to standardize criteria to help distinguish MS white matter abnormalities from those of PML.

Series [9] is described as follows: Natalizumab in combination with glatiramer acetate over six months. Particulars: 20 mg daily glatiramer acetate. It counts as in vivo, human. The protocol:
The safety of natalizumab in combination with glatiramer acetate was evaluated by administering natalizumab over six months to patients who continued to receive 20 mg of daily glatiramer acetate. […] However, this study was of insufficient size or duration to establish the long-term safety or efficacy in this population.

The test system of series [10] is relapsing remitting MS patients. The series can be described thus: Phase 3 monotherapy study: natalizumab versus placebo for 120 weeks. The class given is in vivo, human. The protocol: as §1, §2, §3, §4
Both Phase 3 studies had similar designs. In the monotherapy study, 942 untreated relapsing remitting MS patients were randomized to receive natalizumab or placebo for 120 weeks (30 infusions) using a 2:1 allocation. In the add-on study, 1,171 patients who had been receiving weekly intramuscular injections of 30 μg AVONEX®, but who had relapsed despite this treatment, were randomized using a 1:1 allocation to add natalizumab or placebo to their regimen, also for 120 weeks.
Efficacy parameters included EDSS scores, MS relapses, brain MRI scans, MSFC scores, visual function tests, and quality of life. EDSS and MSFC were measured every 12 weeks, brain MRI scans and quality of life questionnaires at baseline and every year, and MS relapses on an ongoing basis.
The patient population in the two Phase 3 studies were relapsing MS patients according to the criteria of the International Panel on the Diagnosis of Multiple Sclerosis (McDonald et al., Ann. Neurol. 50:121-127 (2001)). It encompassed a broad range of ages and disease severity, and represented the current relapsing MS population with active disease, consistent with the approved indication. Patients with primary- or secondary-progressive MS were excluded. […]

A short description of series [11]: Population pharmacokinetic analysis of natalizumab with concurrent AVONEX. The class given is in vivo, human. The protocol:
In a placebo-controlled MS study, the administration of AVONEX® appeared to be associated with an increase in the serum concentrations of natalizumab in a small cohort on whom intensive pharmacokinetic sampling was performed. However, based upon a comparison of the mean post-hoc parameter estimates from the population pharmacokinetic analysis, steady-state clearance and half-life values differed between patients concurrently taking AVONEX® and natalizumab monotherapy, but only by approximately 5%, and were not considered clinically significant. […] It is notable that the two reports of PML in the MS database occurred in patients receiving concomitant AVONEX®. Thus, the risk of PML with natalizumab treatment may be increased by concomitant treatment with interferon β, though this could have occurred in two patients on combination therapy due to chance alone (p=0.23).

[12] abbreviates: mean post-hoc parameter estimates, population pharmacokinetic analysis.

serotonin 5HT2(A) receptor, sequence (P28223 whole entry): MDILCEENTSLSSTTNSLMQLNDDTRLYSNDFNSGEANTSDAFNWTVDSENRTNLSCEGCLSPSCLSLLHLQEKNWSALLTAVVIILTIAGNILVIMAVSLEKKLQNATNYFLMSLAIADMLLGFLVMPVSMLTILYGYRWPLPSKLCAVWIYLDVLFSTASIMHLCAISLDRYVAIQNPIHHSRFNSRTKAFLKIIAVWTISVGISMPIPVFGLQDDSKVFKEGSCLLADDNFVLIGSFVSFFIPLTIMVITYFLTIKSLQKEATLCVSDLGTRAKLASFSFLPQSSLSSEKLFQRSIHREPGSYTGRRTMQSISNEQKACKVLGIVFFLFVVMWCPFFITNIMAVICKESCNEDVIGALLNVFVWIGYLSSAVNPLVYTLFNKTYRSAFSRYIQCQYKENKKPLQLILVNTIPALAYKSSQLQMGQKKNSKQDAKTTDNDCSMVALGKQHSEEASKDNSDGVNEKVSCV

Regarding `O=C1Cc2cc(CCN3CCN(c4nsc5ccccc45)CC3)c(Cl)cc2N1` [zisprasidone], the “Potency as 5HT2(A) receptor antagonist relative to chlorpromazine and clozapine” value in series [1] is “significantly more potent”.

In the case of `CN(C)CCCN1c2ccccc2Sc2ccc(Cl)cc21` [chlorpromazine], in the series with JCV [2], the “Block of JCV cell entry” value is “block”.

In the case of `Nc1ccn(C[C@@H](CO)OCP(=O)(O)O)c(=O)n1` [Cidofovir, cidofovir], the “Clinical effect in PML” value in the series on JCV [3] is “without clinical effect”.

On to glatiramer acetate, for which, in the series on MS patients [4], the “Subjects who experienced at least one relapse despite treatment” value was 66%.

“natalizumab: humanized antibody against VLA-4; humanized IgG4κ monoclonal antibody directed against the α-4-subunit of alpha-4 integrins”: the Deaths result in the series on Crohn's Disease patients was “Six”. Further, in series [5], the Deaths entry is “two”. For the same compound, the Tolerability result in the series with MS patients [6] (3,919 subjects in MS, Crohn's Disease and rheumatoid arthritis trials) was “generally well tolerated”. In addition, the Occurrence of malignancy entry with MS patients [6] (during natalizumab treatment, balanced with control groups) is given as “uncommon”. For the same compound, in the series with MS patients [6] (human, in vivo), the “Incidence of hypersensitivity reactions” value is recorded as “approximately 4%” and the “Incidence of serious systemic hypersensitivity reactions” value was “less than 1%”. The “Adverse events that led to discontinuation” value in the series with MS patients [6] (natalizumab-treated MS patients) is 5.8%. In addition, the “Discontinuation due to urticaria” value in the series with MS patients [6] (natalizumab-treated patients, most common cause of discontinuation) stood at 1.2%. The Deaths result with MS patients [6] (open-label MS trials) is on record as “Four”. Moreover, in the series on MS patients [6] (placebo-controlled MS trial), the “Serious adverse events: MS relapse” value is 4.7%; the “Serious adverse events: appendicitis and urinary tract infection” value is on record as less than 1%; the “Serious adverse events: infections and infestations” value turned out to be 2.4%; the “Serious adverse events: nervous system disorders” value came to 5.9%. Further, the “Patients with at least one serious adverse event” value with MS patients [6] (placebo-controlled MS trial, 251 of 1,617 patients) is 15.5%. In addition, the Deaths entry with MS patients [6] (placebo-controlled MS trials, patients who had received natalizumab) is “two”. The “Tolerability in combination with AVONEX” value in [7] (589 patients, up to 120 weeks) is listed as “well tolerated”. The “Quality of life, physical components of the SF-36” value in series [7] (compared to AVONEX therapy alone, trend on the mental component) is “improved”. The Patients relapse-free in series [7] (two years, add-on to AVONEX) is 54%. For the same compound, the “Risk reduction of disability progression” value in series [7] (versus AVONEX alone, EDSS, two years) is reported as 24%. The “Relative reduction in annualized relapse rate” value in series [7] (versus AVONEX, two years) came out at 55%. In addition, in the series with JCV [8] (human, in vivo), the “Incidence of PML” value was “approximately 1 /1,000”; the “Incidence of PML, 95% confidence interval” value is reported as 0.2-2.8 /1,000; the “JCV in CSF” value is “not detected”. Besides, in the series on JCV [8] (two MS patients, one Crohn's Disease patient, two fatal), the “Confirmed cases of PML” value is given as “Three”. Besides, in series [9], the “Interaction between glatiramer acetate and natalizumab pharmacokinetics” value is given as “no interactions”; the “Interaction between glatiramer acetate and natalizumab α4-integrin receptor saturation” value is given as “no interactions”. Further, in series [10] (monotherapy versus placebo), the “Quality of life, physical and mental components of the SF-36” value is listed as “improved”. In addition, the Annualized relapse rate in series [10] (monotherapy, two years) came out at 0.235. The “Hazard ratio (95% confidence interval) for sustained progression of disability” value in series [10] (natalizumab versus placebo, two years) is given as 0.58 (0.43, 0.77). In series [10] (two years, measured by EDSS, monotherapy), the “Percentage of patients with sustained progression of disability” value came to 17%. Besides, the Patients remaining relapse-free in series [10] (two years, monotherapy) is 67%. Further, in series [10] (versus placebo, EDSS, two years), the “Risk reduction of disability progression” value was 42%. In series [10] (versus placebo, two years), the “Relative reduction in annualized relapse rate” value worked out at 68%. In series [11] (setting [12]), the “Difference in half-life, concurrent AVONEX versus natalizumab monotherapy” value is “approximately 5%” and the “Difference in steady-state clearance, concurrent AVONEX versus natalizumab monotherapy” value was “approximately 5%”. Besides, the “Serum concentrations of natalizumab on administration of AVONEX” value in series [11] (small cohort with intensive pharmacokinetic sampling, placebo-controlled MS study) was “increase”.
